Test results published in patent US9758785B2, “miR-520 microRNAs sensitize cancers to platinum-based therapy” (BAYLOR COLLEGE OF MEDICINE, priority 2012, dated 2017).

Key:
Type in all cases: cell-based, human
OVCAR8 cells [1] = assay: Viability (MTS) across cisplatin concentrations, stable microRNA clones; settings: OVCAR8 stable clones vs non-silencing mimic, cisplatin <5 μg/mL
Protocol: (§1) Established ovarian cancer cell lines were obtained from the ATCC (OVCAR8, OVCAR5) and the University of Texas M.D. Anderson Cancer Center (HEYA8, SKOV3ip1). All cell lines were maintained at 37° C. in RPMI 1640 media (Invitrogen, Carlsbad, Calif.) supplemented with 10% fetal bovine serums (Hyclone, Logan, Utah) and 1% penicillin/streptomycin (Gibco, Carlsbad, Calif.). MicroRNA mimics and mimic controls (Dharmacon, Lafayette, Colo.) were transiently transfected into actively growing cultures using Lipofectamine 2000 (Invitrogen, Carlsbad, Calif.). After a 24-hour incubation, transfected cultures were washed, passaged and seeded into 96 well plates. Proliferation and apoptosis were measured at 72, 96 and 120 hours after transfection using standard assays (Cell Titer 96 Aqueous One; Caspase Glo 3/7; Promega, Madison, Wis.). pLemiR expression vectors (Open Biosystems/Thermo, Huntsville, Ala.) were prepared according to manufacturer's instructions and transfected into cells using Fugene 6 (Roche, Indianapolis, Ind.). Following transfection, stable clones were selected using puromycin (Invitrogen) at doses optimized for each line. Rates of proliferation and apoptosis were examined in stable transfectants 24, 48, 72 and 96 hours after selected cells had been passaged and dispensed into 96 well plates. Viability was assessed across a clinically relevant range of cisplatin concentrations using an MTS assay (Promega). Cisplatin was obtained from Teva Pharmaceuticals (Irvine, Calif.).
(§2) For this reason, the inventors created clones of OVCAR8 and SKOV3ip1 ovarian cancer cell lines stably expressing either miR-520h (n=3) and miR-520a (n=3). […] To assess the impact of these microRNAs on cisplatin-induced cell killing, the inventors examined the viability of OVCAR8 and SKOV3ip1 cells stably expressing either microRNA incubated with clinically relevant concentrations of cisplatin. […] It should be noted that SKOV3ip1 cells tolerated only very low levels of miR-520a expression. The impact of cisplatin treatment on rates of apoptosis differed dramatically between the two cell lines.

SKOV3ip1 cells [2] = assay: as above; settings: SKOV3ip1 stable clones vs non-silencing mimic
Protocol: as §1, §2

OVCAR8 cells [3] = assay: Proliferation assay (MTS, Cell Titer 96 Aqueous One); settings: for Proliferation: no cisplatin
Protocol: as §1

SKOV3ip1 cells [4] = assay: as above; settings: no cisplatin
Protocol: as §1

HEY cells = assay: Proliferation assay; settings: mimic transfection
Protocol: as §1

HEYA8 cells = assay: Proliferation assay; settings: HEYA8, acute mimic transfection
Protocol: as §1

OVCAR5 = assay: Proliferation assay; settings: OVCAR5, mimic transfection
Protocol: as §1

ATM = assay: Western blot of ATM in OVCAR8 cells; settings: for ATM degradation / cleavage product (ΔATM): OVCAR8, increasing concentrations of cisplatin; for ATM protein expression: OVCAR8 stably expressing the microRNA vs non-silencing control or empty vector
Protocol: Whole cell lysates equivalent to 30 μg of protein were resolved on 4-12% gradient SDS-PAGE. Resolved proteins were transferred onto PVDF membranes using the iBlot system (Invitrogen). Rabbit polyclonal and/or mouse monoclonal antibodies specifically recognizing ATM, phospo-ATM (Ser1981) CHK1 phospho-CHK1 (Ser216), p21, phospo-CHK2 ([…]), BCL2, XIAP, CDC25A were obtained from Cell Signaling Technologies (Danvers, Mass.). A rabbit polyclonal antibody recognizing FANCD2 was also purchased from Abcam (Cambridge, Mass.). Protein expression was visualized using species-specific, horseradish peroxidase-conjugated secondary antibody (Cell Signaling) and ECL Plus chemiluminescent substrate (Amersham, Buckinghamshire, UK).

ATM transcript = assay: qPCR of ATM transcript in OVCAR8 cells; settings: OVCAR8, qPCR vs non-silencing control, baseline without cisplatin
Protocol: Total RNA was extracted from cell pellets using the mirVana miRNA extraction kit (Ambion, Austin, Tex.) according to the manufacturer's instructions. Levels of microRNA expression were examined using Mature MicroRNA Taqman assays (Applied Biosystems, Foster City, Calif.) using U6 as a control. For all gene expression assays, cDNA was prepared using qScript cDNA supermix (Quanta Biosciences, Gaithersburg, Md.). TaqMan gene expression assays (Applied Biosystems) were used to measure expression of specific target genes according to the manufacturer's instructions. All reactions were performed in triplicate using OneStepPlus real time PCR system (Applied Biosystems). All qPCR results are reported using the ΔΔCT method (17).

SVOK3ip1 cells = assay: Spheroid formation; settings: cells stably expressing mimics

B1: hsa-mir-520h MI0003175 (nucleic acid, listed as Homo sapiens)
chain: UCCCAUGCUGUGACCCUCUAGAGGAAGCACUUUCUGUUUGUUGUCUGAGAAAAAACAAAGUGCUUCCCUUUAGAGUUACUGUUUGGGA
modifications: expressed or natural sequence
notes: synthetic mimic or stably expressed from pLemiR vector; written miR-520g/h interchangeably
Sensitization to cisplatin (viability) (OVCAR8 cells [1]): significantly sensitized | Sensitization to cisplatin (viability) (OVCAR8 cells [1]; listed as miR-520g/h): sensitized | Sensitization to cisplatin (viability) (SKOV3ip1 cells [2]): significantly sensitized | Sensitization to cisplatin (viability) (SKOV3ip1 cells [2]; listed as miR-520g/h): appeared to sensitize | Proliferation (OVCAR8 cells [3]; OVCAR8, transient/acute mimic transfection vs non-silencing control): significantly reduced | Proliferation (OVCAR8 cells [3]; OVCAR8, transient/acute mimic transfection vs non-silencing control, listed as Mir-520g/h): significantly increased | Proliferation (OVCAR8 cells [3]; OVCAR8 clones stably expressing the microRNA): enhanced the proliferation | Increase in proliferation (OVCAR8 cells [3]; mimic, transient, 96 hours following transfection, vs non-silencing control): 19% | Proliferation (SKOV3ip1 cells [4]; SKOV3ip1, acute mimic transfection): significantly reduced | Proliferation (SKOV3ip1 cells [4]; SKOV3ip1 clones stably expressing the microRNA): enhanced the proliferation | Proliferation (HEY cells): no impact | Proliferation (HEYA8 cells): no significant impact | Proliferation (OVCAR5): no impact | ATM degradation / cleavage product (ΔATM) (ATM): induced both the phosphorylation and degradation | ATM degradation / cleavage product (ΔATM) (ATM; listed as MiR-520h): promotes a proteolytic degradation | ATM degradation / cleavage product (ΔATM) (ATM; listed as miR-520g/h): increased levels | Phosphorylated ATM level (ATM; OVCAR8 stably expressing the microRNA): decreased levels | ATM protein expression (ATM): decreased levels | ATM protein expression (ATM; listed as Mir-520g/h): markedly reduced | ATM protein expression (ATM; listed as miR-520g/h): significantly less | ATM transcript level (ATM transcript): paradoxically higher | ATM transcript level (ATM transcript; listed as miR-520g/h): actually higher | Capacity to form spheroids (SVOK3ip1 cells): decreased capacity to form spheroids
